Experimental findings from US7402303 (LABORATOIRES SERONO, dated 2008) are described below.

The assay has as its target T1, recombinant CCR1 (UniProt P32246 1-355, limits assumed).
T1 construct: whole, on cells; The assay used membranes of CHO transfectants, not whole cells
T1 sequence (looked up): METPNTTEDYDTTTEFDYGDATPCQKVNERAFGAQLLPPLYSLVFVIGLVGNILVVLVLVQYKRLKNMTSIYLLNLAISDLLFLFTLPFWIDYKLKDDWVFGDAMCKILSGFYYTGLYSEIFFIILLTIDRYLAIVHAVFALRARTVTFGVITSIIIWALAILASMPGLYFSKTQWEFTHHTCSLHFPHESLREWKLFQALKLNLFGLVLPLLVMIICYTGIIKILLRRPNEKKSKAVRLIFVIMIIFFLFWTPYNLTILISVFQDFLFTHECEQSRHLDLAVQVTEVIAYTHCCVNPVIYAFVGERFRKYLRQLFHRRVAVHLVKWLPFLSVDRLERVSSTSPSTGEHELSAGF
The assay is described as follows: SPA equilibrium competition with [125I]-MIP-1α on CHO-CCR1 membranes. The procedure: Competitors were prepared by serial dilutions of the unlabelled chemokines in binding buffer to cover the range 10^-6-10^-12 M. The binding buffer used was 50 mM HEPES, pH 7.2 containing 1 mM CaCl_2, 5 mM MgCl_2, 0.15 M NaCl and 0.5% BSA. Wheatgerm SPA beads (Amersham) were solubilised in PBS to 50 mg/ml, and diluted in the binding buffer to a 10 mg/ml, and the final concentration in the assay was 0.25 mg/well. Membranes prepared from CHO cells expressing CCR1 or CCR5 were stored at −80° C. and diluted in the binding buffer to a 80 μg/ml. Equal volumes of membrane and beads stocks were mixed before performing the assay to reduce background. […] The plates were incubated at room temperature with agitation for 4 hours. Radioactivity was measured and data analysed as described for the heparin-binding assay.
MIP-1α for binding to recombinant CCR1 and CCR5 in membranes prepared from CHO stable transfectants. There was no significant difference in any of the single mutations on both receptors (results not shown).

B1: triple 40's RANTES mutant (R44A-K45A-R47A) (ligand)
chain: SPYSSDTTPCCFAYIARPLPRAHIKEYFYTSGKCSNPAVVFVTAANAQVCANPEKKWVREYINSLEMS
notes: E. coli protein, leader cleaved; also called R44A-K45A-R47A RANTES; triple 40's mutant
Take B1: the “fold reduction in affinity against WT RANTES” value was 100 fold.

B2: triple 50's RANTES mutant (K55A-K56A-R59A) (ligand)
chain: SPYSSDTTPCCFAYIARPLPRAHIKEYFYTSGKCSNPAVVFVTRKNRQVCANPEAAWVAEYINSLEMS
notes: E. coli protein, leader cleaved; also called triple 50's mutant; 50's mutant
Take B2: the “fold loss of affinity against WT RANTES” value was determined as 3 fold.
